{"source": "patent US20160102129A1", "about": "(Novo Nordisk, published 2016)", "binders": {"B1": {"name": "N^ε34-[2-[[(2S)-2-[[(2S)-4-carboxy-2-[[2-[[(2S)-2-[[(4S)-4-carboxy-4-[[(4S)-4-carboxy-4-(19-carboxynonadecanoylamino)butanoyl]amino]butanoyl]amino]-3-hydroxypro … (peptide)", "peptide": "[Desaminohistidyl][Aib]HGTFTSDVSKYLEEQAAREFIAWLLK([Gly-Ser-Glu-Gly-Ser-γGlu-γGlu-C20 diacid])T-NH2"}, "B2": {"name": "N^ε34-[2-[2-[2-[[2-[2-[2-[[(4S)-4-carboxy-4-(17-carboxyheptadecanoylamino)butanoyl]amino]ethoxy]ethoxy]acetyl]amino]ethoxy]ethoxy]acetyl]-[Imp7,Aib8,His9,Lys18, … (peptide)", "peptide": "[Desaminohistidyl][Aib]HGTFTSDVSKYLEEQAAREFIAWLLK([Ado-Ado-γGlu-C18 diacid])T-NH2"}, "B3": {"name": "N^ε34-[2-[2-[2-[[2-[2-[2-[[(4S)-4-carboxy-4-[[(4S)-4-carboxy-4-[[(4S)-4-carboxy-4-(17-carboxyheptadecanoylamino)butanoyl]amino]butanoyl]amino]butanoyl]amino]eth … (peptide)", "peptide": "[Desaminohistidyl]AHGTFTSDVSKYLEGRAAREFIAWLLK([Ado-Ado-γGlu-γGlu-γGlu-C18 diacid])T-NH2"}, "B4": {"name": "N^ε34-[(4S)-4-carboxy-4-[[(4S)-4-carboxy-4-[[(2S)-2-[[2-[[(2S)-4-carboxy-2-[[(2S)-2-[[2-(17-carboxyheptadecanoylamino)acetyl]amino]-3-hydroxypropanoyl]amino]but … (peptide)", "peptide": "[Desaminohistidyl][Aib]HGTFTSDVSKYLEEQAAREFIAWLLK([γGlu-γGlu-Ser-Gly-Glu-Ser-Gly-C18 diacid])T", "notes": "Named as peptide, not peptide amide (C-terminal acid)"}, "B5": {"name": "N^ε34-[(4S)-4-carboxy-4-[[2-[2-[2-[[2-[2-[2-[[(4S)-4-carboxy-4-[[(4S)-4-carboxy-4-(17-carboxyheptadecanoylamino)butanoyl]amino]butanoyl]amino]ethoxy]ethoxy]acet … (peptide)", "peptide": "[Desaminohistidyl][Aib]HGTFTSDVSKYLEARAAREFIAWLLKGGG", "modifications": "not fully specified (residue 28); printed as Nε34-[(4S)-4-carboxy-4-[[2-[2-[2-[[2-[2-[2-[[(4S)-4-carboxy-4-[[(4S)-4-carboxy-4-(17-carboxyheptadecanoylamino)butanoyl]amino]butanoyl]amino]ethoxy]ethoxy]acetyl]amino]ethoxy]ethoxy]acetyl]amino]butanoyl]-[Imp7,Aib8,His9,Lys18,Ala22,Arg23,Arg26,Leu33,Gly36]-GLP-1-(7-37)-peptide"}, "B6": {"name": "N^ε34-[(4S)-4-carboxy-4-[[(4S)-4-carboxy-4-[[2-[2-[2-[[(4S)-4-carboxy-4-[[(4S)-4-carboxy-4-(17-carboxyheptadecanoylamino)butanoyl]amino]butanoyl]amino]ethoxy]et … (peptide)", "peptide": "[Desaminohistidyl][Aib]HGTFTSDVSRYLEGRAAREFIAWLLK([γGlu-γGlu-AEEA-γGlu-γGlu-C18 diacid])GAG"}, "B7": {"name": "N^ε34-[(4S)-4-carboxy-4-[[(4S)-4-carboxy-4-[[2-[2-[2-[[(4S)-4-carboxy-4-[[(4S)-4-carboxy-4-(17-carboxyheptadecanoylamino)butanoyl]amino]butanoyl]amino]ethoxy]et … (peptide)", "peptide": "[Desaminohistidyl][Aib]HGTFTSDVSRYLEGRAAREFIAWLLK([γGlu-γGlu-AEEA-γGlu-γGlu-C18 diacid])GSG"}, "B8": {"name": "N^ε34-[2-[[(2S)-2-[[(2S)-4-carboxy-2-[[2-[[(2S)-2-[[(4S)-4-carboxy-4-[[(4S)-4-carboxy-4-(17-carboxyheptadecanoylamino)butanoyl]amino]butanoyl]amino]-3-hydroxypr … (peptide)", "peptide": "[Desaminohistidyl][Ac4c]HGTFTSDVSKYLEGRAAREFIAWLLK([Gly-Ser-Glu-Gly-Ser-γGlu-γGlu-C18 diacid])T-NH2"}, "B9": {"name": "N^ε35-[(4S)-4-carboxy-4-[[2-[2-[2-[[(4S)-4-carboxy-4-[[2-[2-[2-[[(4S)-4-carboxy-4-[[2-[2-[2-[[(4S)-4-carboxy-4-[[(4S)-4-carboxy-4-(17-carboxyheptadecanoylamino) … (peptide)", "peptide": "XXHGTFTSDYSRYLEGRAAREFIAWLLRK", "modifications": "Imp (desamino-His) at 7; Acb at 8; Lys35 N-epsilon acylated with 17-carboxyheptadecanoyl-γGlu-γGlu-Ado-γGlu-Ado-γGlu-Ado-γGlu-; C-terminal amide (GLP-1(7-37) numbering)"}, "B10": {"name": "N^ε35-[(4S)-4-carboxy-4-[[2-[2-[2-[[(4S)-4-carboxy-4-[[2-[2-[2-[[(4S)-4-carboxy-4-[[2-[2-[2-[[(4S)-4-carboxy-4-[[(4S)-4-carboxy-4-(17-carboxyheptadecanoylamino) … (peptide)", "peptide": "XXHGTFTSDYSKYLEGRAAREFIAWLLKK", "modifications": "Imp (desamino-His) at 7; Acb at 8; Lys35 N-epsilon acylated with 17-carboxyheptadecanoyl-γGlu-γGlu-Ado-γGlu-Ado-γGlu-Ado-γGlu-; C-terminal amide (GLP-1(7-37) numbering)"}, "B11": {"name": "N^ε35-[(4S)-4-carboxy-4-[[2-[2-[2-[[(4S)-4-carboxy-4-[[2-[2-[2-[[(4S)-4-carboxy-4-[[2-[2-[2-[[(4S)-4-carboxy-4-[[(4S)-4-carboxy-4-(17-carboxyheptadecanoylamino) … (peptide)", "peptide": "XXHGTFTSDYSKYLERQAAREFIAWLLKK", "modifications": "Imp (desamino-His) at 7; Acb at 8; Lys35 N-epsilon acylated with 17-carboxyheptadecanoyl-γGlu-γGlu-Ado-γGlu-Ado-γGlu-Ado-γGlu-; C-terminal amide (GLP-1(7-37) numbering)"}}, "note": "*1 amine or outer side, *2 acyl side, *3 side chain or, on linkers, in order; H or OH if unused. Where no end group is shown, it is not given here. Side-chain parts run from the residue outwards. [ ]: non-standard residue; d: D form. The star is where a group is joined. C20 diacid = O=C(O)CCCCCCCCCCCCCCCCCCC(=O)*; C18 diacid = O=C(O)CCCCCCCCCCCCCCCCC(=O)*; γGlu = O=C(O)[C@H](CCC(=O)[*:2])N[*:1]; Desaminohistidyl = O=C(CCc1c[nH]cn1)*; Ac4c = NC1(C(=O)O)CCC1; AEEA = NCCOCCOCC(=O)O; Aib = CC(C)(N)C(=O)O"}
{"target": "T1, human GLP-1 receptor (human, UniProt P43220 24-463)", "experiment": "cell-based or functional assay", "units": {"EC50 GLP-1R [pM], CRE luciferase reporter gene assay": "pM"}}
{"binder": "B1", "EC50 GLP-1R [pM], CRE luciferase reporter gene assay": 5}
{"binder": "B2", "EC50 GLP-1R [pM], CRE luciferase reporter gene assay": 6}
{"binder": "B3", "EC50 GLP-1R [pM], CRE luciferase reporter gene assay": 8}
{"binder": "B4", "EC50 GLP-1R [pM], CRE luciferase reporter gene assay": 5.5}
{"binder": "B5", "EC50 GLP-1R [pM], CRE luciferase reporter gene assay": 2.2}
{"binder": "B6", "EC50 GLP-1R [pM], CRE luciferase reporter gene assay": 3}
{"binder": "B7", "EC50 GLP-1R [pM], CRE luciferase reporter gene assay": 6}
{"binder": "B8", "EC50 GLP-1R [pM], CRE luciferase reporter gene assay": 12}
{"binder": "B9", "EC50 GLP-1R [pM], CRE luciferase reporter gene assay": 18.5}
{"binder": "B10", "EC50 GLP-1R [pM], CRE luciferase reporter gene assay": 16}
{"binder": "B11", "EC50 GLP-1R [pM], CRE luciferase reporter gene assay": 7}
{"target": "T2, human glucagon receptor (human, UniProt P47871 26-477)", "T2 sequence (P47871 26-477)": "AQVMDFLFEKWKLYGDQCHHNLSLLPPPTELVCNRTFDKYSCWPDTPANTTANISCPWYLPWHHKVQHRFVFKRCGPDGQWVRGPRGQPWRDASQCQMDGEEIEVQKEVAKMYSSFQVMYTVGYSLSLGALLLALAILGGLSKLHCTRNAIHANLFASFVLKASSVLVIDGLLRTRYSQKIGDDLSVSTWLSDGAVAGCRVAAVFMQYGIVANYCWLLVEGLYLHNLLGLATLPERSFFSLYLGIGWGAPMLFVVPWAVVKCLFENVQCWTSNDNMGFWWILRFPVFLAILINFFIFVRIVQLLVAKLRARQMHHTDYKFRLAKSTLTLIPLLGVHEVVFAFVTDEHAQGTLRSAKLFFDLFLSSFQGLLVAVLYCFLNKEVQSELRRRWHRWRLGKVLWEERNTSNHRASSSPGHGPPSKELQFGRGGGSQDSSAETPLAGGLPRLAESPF", "experiment": "cell-based or functional assay", "units": {"EC50 GlucagonR [pM], CRE luciferase reporter gene assay": "pM"}}
{"binder": "B1", "EC50 GlucagonR [pM], CRE luciferase reporter gene assay": 111}
{"binder": "B2", "EC50 GlucagonR [pM], CRE luciferase reporter gene assay": 83}
{"binder": "B3", "EC50 GlucagonR [pM], CRE luciferase reporter gene assay": 229}
{"binder": "B4", "EC50 GlucagonR [pM], CRE luciferase reporter gene assay": 84.5}
{"binder": "B5", "EC50 GlucagonR [pM], CRE luciferase reporter gene assay": 39.4}
{"binder": "B6", "EC50 GlucagonR [pM], CRE luciferase reporter gene assay": 248}
{"binder": "B7", "EC50 GlucagonR [pM], CRE luciferase reporter gene assay": 158}
{"binder": "B8", "EC50 GlucagonR [pM], CRE luciferase reporter gene assay": 28}
{"binder": "B9", "EC50 GlucagonR [pM], CRE luciferase reporter gene assay": 226}
{"binder": "B10", "EC50 GlucagonR [pM], CRE luciferase reporter gene assay": 222}
{"binder": "B11", "EC50 GlucagonR [pM], CRE luciferase reporter gene assay": 84}
{"target": "T1, human GLP-1 receptor", "experiment": "SPA displacement of [125I]GLP-1(7-36)NH2 from hGLP-1R BHK membranes", "description": "The GLP-1 receptor binding of each derivatives were determined with competitive binding, displacing [¹²⁵I]GLP-1 bound to GLP-1 receptors expressed in cell membranes associated with wheat germ agglutinin (WGA) scintillation proximity assay (SPA) beads. Each derivative was added in a series of concentrations to isolated membranes comprising the human GLP-1 receptor and displacement of the labelled radioligand was monitored. The receptor binding was reported as the concentration at which half of the labelled ligand is displaced from the receptor, the IC⁵⁰ value.\n1. For the receptor binding assay 50 μl of the assay buffer was added to each well of an assay plate. [0588] 2. Test compounds were serially diluted to give the following concentrations: 8×10EE-7 M, 8×10EE-8 M, 8×10EE-9 M, 8×10EE-10 M, 8×10EE-11 M, 8×10EE-12 M and 8×10EE-13 M. Twenty-five μl were added to appropriate wells in the assay plate. [0589] 3. Cell membrane aliquots were thawed and diluted to their working concentration. Fifty μl were added to each well in the assay plate. [0590] 4. WGA SPA beads were suspended in assay buffer at 20 mg/ml. The suspension was diluted to 10 mg/ml in assay buffer just prior to addition to the assay plate. Fifty μl were added to each well in the assay plate. [0591] 5. […] A 25 μl aliquot was reserved for measuring total counts/well. [0592] 6. The assay plate was incubated for 2 h at 30° C. [0593] 7. The assay plate was centrifuged for 10 min. [0594] 8. The assay plate was read in a Perkin Elmer TopCount NXT instrument.", "units": {"IC50": "nM"}}
{"binder": "B1", "IC50": 0.4}
{"binder": "B2", "IC50": 0.7}
{"binder": "B3", "IC50": 1}
{"binder": "B4", "IC50": 2.3}
{"binder": "B5", "IC50": 0.3}
{"binder": "B6", "IC50": 1}
{"binder": "B7", "IC50": 1.7}
{"binder": "B8", "IC50": 0.3}
{"binder": "B9", "IC50": 6.8}
{"binder": "B10", "IC50": 7.3}
{"binder": "B11", "IC50": 2.3}
{"target": "T2, human glucagon receptor", "experiment": "SPA displacement of [125I]-glucagon from human glucagon receptor BHK membranes", "description": "1. For the receptor binding assay 50 μl of the assay buffer was added to each well of an assay plate. [0603] 2. Test compounds were serially diluted to give the following concentrations: 8×10EE-7 M, 8×10EE-8 M, 8×10EE-9 M, 8×10EE-10 M, 8×10EE-11 M, 8×10EE-12 M and 8×10EE-13 M. Twenty-five μl were added to appropriate wells in the assay plate. [0604] 3. Cell membrane aliquots were thawed and diluted to their working concentration. Fifty μl were added to each well in the assay plate. [0605] 4. WGA SPA beads were suspended in assay buffer at 20 mg/ml. The suspension was diluted to 10 mg/ml in assay buffer just prior to addition to the assay plate. Fifty μl were added to each well in the assay plate. [0606] 5. […] A 25 μl aliquot was reserved for measuring total counts/well. […] 6. The assay plate was incubated for 2 h at 25° C. [0608] 7. The assay plate was centrifuged for 10 min at 1500 rpm. [0609] 8. The assay plate was read in a Perkin Elmer TopCount NXT instrument.", "units": {"IC50": "nM"}}
{"binder": "B1", "IC50": 6}
{"binder": "B2", "IC50": 20.3}
{"binder": "B3", "IC50": 25.9}
{"binder": "B4", "IC50": 11.9}
{"binder": "B5", "IC50": 3.7}
{"binder": "B6", "IC50": 18.8}
{"binder": "B7", "IC50": 11.4}
{"binder": "B8", "IC50": 7.2}
{"binder": "B9", "IC50": 36.7}
{"binder": "B10", "IC50": 22.5}
{"binder": "B11", "IC50": 11.7}
